From CN117924490A (CHINA RESOURCES BIOMEDICAL CO LTD, dated 2024)

Assays:
[1] = molecular target: T1, 人IL-4R表达于HEK293-IL-4R细胞表面 (human IL-4R on the surface of HEK293-IL-4R cells) (human, UniProt P24394 26-825); assay: FACS competition: blocking of biotinylated human IL-4 binding to HEK293-IL-4R cells, PE streptavidin, MFI
T1 construct: whole, on cells; The construct in the HEK293-IL-4R line is not described; also called 人IL-4R过表达细胞; 细胞表面IL-4R
T1 sequence (looked up): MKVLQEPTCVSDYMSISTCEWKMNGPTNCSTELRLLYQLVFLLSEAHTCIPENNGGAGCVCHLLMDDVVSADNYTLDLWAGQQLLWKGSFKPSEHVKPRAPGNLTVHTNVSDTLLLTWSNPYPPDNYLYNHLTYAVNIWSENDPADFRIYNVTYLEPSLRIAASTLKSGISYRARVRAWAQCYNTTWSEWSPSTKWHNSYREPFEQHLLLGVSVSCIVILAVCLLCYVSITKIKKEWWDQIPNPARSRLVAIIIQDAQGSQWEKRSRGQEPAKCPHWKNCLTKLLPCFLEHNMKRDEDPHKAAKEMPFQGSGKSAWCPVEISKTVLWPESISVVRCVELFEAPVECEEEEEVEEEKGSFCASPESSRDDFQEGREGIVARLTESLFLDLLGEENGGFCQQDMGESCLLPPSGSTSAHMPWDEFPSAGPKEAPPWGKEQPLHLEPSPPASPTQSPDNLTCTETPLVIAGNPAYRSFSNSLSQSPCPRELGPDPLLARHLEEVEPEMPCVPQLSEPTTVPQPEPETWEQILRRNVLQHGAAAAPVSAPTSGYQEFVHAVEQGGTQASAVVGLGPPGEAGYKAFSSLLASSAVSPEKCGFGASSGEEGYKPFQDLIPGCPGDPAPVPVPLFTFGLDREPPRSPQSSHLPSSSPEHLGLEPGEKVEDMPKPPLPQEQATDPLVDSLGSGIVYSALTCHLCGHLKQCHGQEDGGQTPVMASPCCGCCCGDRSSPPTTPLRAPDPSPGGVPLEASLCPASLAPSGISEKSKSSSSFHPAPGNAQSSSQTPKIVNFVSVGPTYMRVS

[2] = molecular target: T2, IL-4R蛋白 (Acrobiosystems, IL-H5221) (human, UniProt P24394 26-232); assay: BLI (Octet RH96), antibody captured on AHC2 probes, IL-4R protein in solution, 1:1 model
T2 construct: The two catalogue numbers differ by one letter, likely a misprint; also called Human IL4R Protein, His Tag (Acro, ILR-H5221); 人IL 4R
T2 sequence (looked up): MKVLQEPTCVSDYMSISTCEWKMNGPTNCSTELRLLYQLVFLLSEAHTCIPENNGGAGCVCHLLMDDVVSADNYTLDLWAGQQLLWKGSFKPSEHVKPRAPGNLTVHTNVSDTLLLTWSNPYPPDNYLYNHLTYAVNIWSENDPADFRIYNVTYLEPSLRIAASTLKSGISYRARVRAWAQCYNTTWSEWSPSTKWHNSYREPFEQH

[3] = molecular target: T3, IL-4Rα on HEK293-hSTAT6/5×STAT6-Luc cells (UniProt P24394 26-825, limits assumed); assay: cell-based or functional assay
T3 sequence (looked up): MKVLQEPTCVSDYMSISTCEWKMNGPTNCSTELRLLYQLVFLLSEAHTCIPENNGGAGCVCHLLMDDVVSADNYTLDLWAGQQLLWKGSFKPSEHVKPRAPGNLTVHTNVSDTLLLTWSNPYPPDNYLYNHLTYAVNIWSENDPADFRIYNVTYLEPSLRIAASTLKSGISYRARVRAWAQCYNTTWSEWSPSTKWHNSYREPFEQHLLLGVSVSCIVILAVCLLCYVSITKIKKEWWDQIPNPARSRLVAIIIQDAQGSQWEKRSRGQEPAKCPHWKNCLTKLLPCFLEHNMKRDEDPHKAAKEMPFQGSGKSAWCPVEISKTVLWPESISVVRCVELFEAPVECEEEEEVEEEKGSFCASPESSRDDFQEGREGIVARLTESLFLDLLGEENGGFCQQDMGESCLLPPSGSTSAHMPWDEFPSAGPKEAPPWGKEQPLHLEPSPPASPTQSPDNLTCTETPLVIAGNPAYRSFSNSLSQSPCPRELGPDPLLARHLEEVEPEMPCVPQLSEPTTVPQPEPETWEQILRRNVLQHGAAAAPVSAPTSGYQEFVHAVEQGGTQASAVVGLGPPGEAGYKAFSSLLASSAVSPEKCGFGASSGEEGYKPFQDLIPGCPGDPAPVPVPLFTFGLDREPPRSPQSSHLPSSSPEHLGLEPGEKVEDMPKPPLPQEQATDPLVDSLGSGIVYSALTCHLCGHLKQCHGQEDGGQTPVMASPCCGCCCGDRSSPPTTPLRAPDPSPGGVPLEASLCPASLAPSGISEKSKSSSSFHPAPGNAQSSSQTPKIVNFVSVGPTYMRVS

[4] = molecular target: T1, 人IL-4R表达于HEK293-IL-4R细胞表面 (human IL-4R …); assay: FACS on HEK293-IL-4R cells, FITC anti-human IgG, MFI

B1: 65G5 (antibody, human IgG1, kappa, V domains shown)
VH: EVKLVESGGALVQPGGSLKLSCAASGFTFNSYGMSWVRQTPDKRLELVAVISSDGAYTYYPDSMKGRFTISRDNAKSSLYLQMSSLQSEDTAMYYCTLITTWYFDVWGAGTTVTVSS
VL: DIQMTQSSSSFSVSLGDRVTITCKASEELYNRLAWYQQKPGNAPRLFISGATTLETGVPSRFSGSGSGKDYTLSITSLQTEDVATYYCQQYWSSPYTFGGGTKLELKR
notes: also called 抗人IL-4R抗体; 抗IL-4R抗体
[1]
  IC50: 0.075 µg/mL
[2]
  Kd: 0.341 nM
[3]
  抑制IL-4诱导的HEK293-hSTAT6/5×STAT6-Luc细胞中STAT6磷酸化活性 (luciferase reporter, IL4 protein 40ng/mL) IC50: 92.7 nM
  抑制IL-13诱导的HEK293-hSTAT6/5×STAT6-Luc细胞中STAT6磷酸化活性 (luciferase reporter, IL-13 protein 10ng/mL) IC50: 5.6 nM
[4]
  EC50: 0.334 µg/mL
